Bridge positions count the residues as written; N and C are the ends. Ends that are not written are not given here.
Biological target: human mpl receptor (human) (UniProt P40238)
Test: cell-based or functional assay

Row | Pb EC50 [ng/mL] | Binder
1 | 2.31 | CSSGGPTLREWQQCGRAQ (Fc fusion, part only; not given: Fc-Loop scaffold and insertion site, part only, disulfide 1-14 (inferred); also: inserted into an Fc-Loop, Fc, site and spacers not given here) [Fc-Loop-(SEQ ID NO: 10)]
2 | 0.27 | CSSGGPTLREWQQCQRAQ (Fc fusion, part only; not given: Fc-Loop scaffold and insertion site, part only, disulfide 1-14 (inferred); also: inserted into an Fc-Loop, Fc, site and spacers not given here) [Fc-Loop-(SEQ ID NO: 9)]
3 | 0.28 | CSSGGPTLREWQQCSRAQ (Fc fusion, part only; not given: Fc-Loop scaffold and insertion site, part only, disulfide 1-14 (inferred); also: inserted into an Fc-Loop, Fc, site and spacers not given here) [Fc-Loop-(SEQ ID NO: 8)]

From patent US20120253009A1
